Measurements published in the supplement of paper PMC6757056.
± gives the standard deviation of the averaged measurements.

B1: library; a variant is named by its letters at N, in order (parent)
chain: GCUGUCACCGGUGCUUGGUACGUUAUAUUCAGCCGGUCUGAUGAGUCUNNNNNNAGACGAAACAGC

Assays:
(6R,S)-folinic acid [1] = variants of: B1; experiment: normalized RNA/DNA level without ligand (relative to sTRSVctl = 100) (log10 (% of sTRSVctl)); HEK293T overexpressing SLC46A1; higher = less ribozyme self-cleavage, higher mRNA level; settings: without (6R,S)-folinic acid; ligand present: no
How it was run: (§1)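 Total RNA, extracted with EDTA 72 h after HEK293T cells were transfected with 4 µg per 6-well well of reporter-linked ribozyme switch library plasmids, was reverse-transcribed, amplified, barcoded and sequenced. Ligand, if used, was added 1 h before transfection. RNA level was derived from RNA reads divided by DNA reads and normalized to a spiked-in non-cleaving sequence or to the top sequences. This was multiplied by 100 and log10-transformed, with the top set of 25 sequences and a ≥100 DNA read minimum.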

(6R,S)-folinic acid [2] = variants of: B1; experiment: normalized RNA/DNA level with ligand (relative to sTRSVctl = 100) (log10 (% of sTRSVctl)); HEK293T overexpressing SLC46A1; ligand concentration (+) RNA-Seq: 6 mM; higher = less ribozyme self-cleavage, higher mRNA level; settings: with (6R,S)-folinic acid; ligand present: yes
How it was run: as §1

Variant	normalized RNA/DNA level without ligand (log10) ((6R,S)-folinic acid [1])	normalized RNA/DNA level with ligand (log10) ((6R,S)-folinic acid [2])
GGCAGA	2.077 ± 0.0039	2.033 ± 0.004
GGCAGU	2.058 ± 0.0031	2.013 ± 0.0043
GGCAGG	2.064 ± 0.015	2.045 ± 0.0058
UGCCAU	1.982 ± 0.0048	2 ± 0.021
UGCCAG	1.812 ± 0.0093	1.9581 ± 0.00078
AGCCAU	1.986 ± 0.013	1.99 ± 0.029
AGCCAA	1.9858 ± 0.00027	1.99 ± 0.037
AGCCAC	2.016 ± 0.003	2 ± 0.037
AGCCAG	1.985 ± 0.0073	2.04 ± 0.035
AGACUC	2.038 ± 0.0045	2.05 ± 0.021
AGACUA	1.977 ± 0.0092	1.98 ± 0.043
AGACUU	2.021 ± 0.0033	1.99 ± 0.024
AGACUG	2.003 ± 0.0063	2.01 ± 0.04
UGAAUA	1.965 ± 0.0093	2.03 ± 0.026
UGAAUU	1.986 ± 0.0089	2 ± 0.036
UGAAUC	2.07 ± 0.021	2.06 ± 0.047
CGACCC	2.05 ± 0.028	2.02 ± 0.051
CGACCU	2.061 ± 0.0049	2.016 ± 0.013
CGACCA	2.079 ± 0.0068	2.03 ± 0.034
CGACCG	1.991 ± 0.007	1.99 ± 0.018

Variant	normalized RNA/DNA level without ligand (log10) ((6R,S)-folinic acid [1])	normalized RNA/DNA level with ligand (log10) ((6R,S)-folinic acid [2])
CGAGUC	2.053 ± 0.0089	2.037 ± 0.0081
CGAGUA	1.965 ± 0.0014	2 ± 0.04
CGAUGG	1.928 ± 0.017	1.972 ± 0.019
CGAUGU	1.98 ± 0.0073	1.99 ± 0.047
CGAUGA	2.011 ± 0.0023	2.02 ± 0.078
CGAUGC	2.039 ± 0.0072	2.008 ± 0.0096
CGAAUC	2.05 ± 0.019	2.03 ± 0.034
CGAAUG	2.0224 ± 0.0012	2.034 ± 0.012
CGAAUU	2 ± 0.026	2.01 ± 0.037
GGACCC	2.045 ± 0.019	2.027 ± 0.015
GGACCA	2.054 ± 0.017	2.02 ± 0.029
GGACCU	2.062 ± 0.0094	2.02 ± 0.033
GGAUUG	1.996 ± 0.0084	2.05 ± 0.053
GGAUUA	2.014 ± 0.0063	2.0315 ± 0.0011
CGACGU	1.995 ± 0.002	2.02 ± 0.021
CGACGA	2.001 ± 0.011	2 ± 0.05
CGACGC	2.03 ± 0.0041	2.01 ± 0.038
CGACGG	1.926 ± 0.014	1.973 ± 0.015
AGAGGC	2.018 ± 0.02	2.01 ± 0.04
AGAGGA	1.929 ± 0.014	2.02 ± 0.039

Variant	normalized RNA/DNA level without ligand (log10) ((6R,S)-folinic acid [1])	normalized RNA/DNA level with ligand (log10) ((6R,S)-folinic acid [2])
AGAGGU	1.889 ± 0.0033	2 ± 0.076
AGAGGG	1.78 ± 0.02	2.01 ± 0.015
UGCCGA	1.9547 ± 0.0011	2.02 ± 0.046
GGAGAG	1.85 ± 0.02	1.97 ± 0.038
GGACGC	1.949 ± 0.0027	1.96 ± 0.025
GGACGG	2.008 ± 0.015	2.04 ± 0.033
UGACAU	1.9505 ± 0.00041	1.99 ± 0.05
UGACAC	2.002 ± 0.0083	2.008 ± 0.0047
CGCACC	2.079 ± 0.014	2.07 ± 0.063
CGCACA	1.989 ± 0.0068	1.98 ± 0.026
CGCACU	2.0385 ± 0.00015	2.01 ± 0.034
CGCACG	2.046 ± 0.0062	2.026 ± 0.018
AGAAUA	1.9881 ± 0.00025	2.02 ± 0.037
AGAAUG	1.893 ± 0.0045	2 ± 0.039
AGAAUU	2.005 ± 0.02	2.021 ± 0.008
AGAAUC	2.0639 ± 0.001	2.05 ± 0.033
UGAUGC	1.954 ± 0.013	1.998 ± 0.01
AGACGG	1.934 ± 0.011	2.01 ± 0.027
